Measurements published in a protein production outcome set (Wang et al. 2014).

Assay: label from the status in PepcDB records

Sequence	protein production
MESPGGSAPLLGLELCAAARDSAAMAGPGAPCDPCAPAAVWKRHIVRQLRHRDRTQKALFLELVPAYNHLLEKAELLAKFSEKLKSEPKDAISTRHEDWREEVSGTGPDQVSSPASLRVKWQQEKKGLQLVCGEMAYQVVKKSAALDTLQSQLEERQDRLEALQACVVQLQEARAQQSRQLEERQAENAAQREAYETLLQQAVHQEAALRRLQEEARDLLEQLVQRKARAAAERNLRNERRERANQALVSQELKKAAKRTVSISEIPNTLEDGTKEETVALAPAALPEFSESETCEKWKRPFRSASATSLTLSRCVDVVKGLLDFKKRRGHSVGGAPEQRYQSIPVCVSAQIPSQAQDVLDAHLSEVNAVCFGPNSSLLATGGADRLIHLWNVVGGRLEANQTLEGAGGSITSVDFDPSGSQVLAATYNQAAQLWKVGETQSKETLSGHKDKVTAAKFKLTRHQAVTGSRDRTVKEWDLGRAYCSRTINVLSYCNDVVCGDHIIISGHNDQKIRFWDSRGPHCIQVIPVQGRVTSLHLSYDQLHLLSCSRDNTLKVIDLRISNIRQVFRADGFKCSSDWTKAVFSPDRSYALAGSSNGDLYIWDVNTGKLETSLQGPHCTAVNAVAWCFSGNHVVSVDQGRKVVLWH	failed
DDRQEEKMIKENVYFDGNVKSLGFSQQDGESTVGVMAPGQYTFGTGAPERMTVVKGALTIKRVTDADWVTFTAGEAFEVAGNSSFDLQVEVATAYLCEFL	failed
MMENPQQGLEMRSIVVAYYREQAVSTLVKTLIFIVTLLFIGRSFSEEKNYDMQQLSAQQAYENGRLLRAQFKNLAAREYLKYAADLGEPNAAYLYAMEVANYRTTIRTPPESQHYLLLAAQGGSRQAMRVLYQNGEWLRAAERSLWQQTYYDTLIELGSREPSQAAYELALFHQKDNPKLAQHYLTIAVEFEHPAALMLMAQQIEQGEGSYPMPGSRATEARKTYLKAAQTGYIPAIRNYIQLLENKGKYQDAYYWRQQAVQRGDLTSLVAMGGILSGQSEFYRFVEPDLKQAKAYFNRYLEVAGSDRLSHVYQNSQKQLLDISMQLNGHEKEIAEKIELQLENYQPFFNHDAYWDN	failed
MNTKLTKIISGLFVATAAFQTASAGNITDIKVSSLPNKQKIVKVSFDKEIVNPTGFVTSSPARIALDFEQTGISMDQQVLEYADPLLSKISAAQNSSRARLVLNLNKPGQYNTEVRGNKVWIFINESDDTVSAPARPAVKAAPAAPAKQQAAAPSTKSAVSVSKPFTPAKQQAAAPFTESVVSVSAPFSPAKQQAAASAKQQTAAPAKQQAATPAKQTNIDFRKDGKNAGIIELAALGFAGQPDISQQHDHIIVTLKNHTLPTTLQRSLDVADFKTPVQKVTLKRLNNDTQLIITTAGNWELVNKSAAPGYFTFQVLPKKQNLESGGVNNAPKTFTGRKISLDFQDVEIRTILQILAKESGMNIVASDSVNGKMTLSLKDVPWDQALDLVMQARNLDMRQQGNIVNIAPRDELLAKDKAFLQAEKDIADLGALYSQNFQLKYKNVEEFRSILRLDNADTTGNRNTLVSGRGSVLIDPATNTLIVTDTRSVIEKFRKLIDELDVPAQQVMIEARIVEAADGFSRDLGVKFGATGKKKLKNDTSAFGWGVNSGFGGDDKWGAETKINLPITAAANSISLVRAISSGALNLELSASESLSKTKTLANPRVLTQNRKEAKIESGYEIPFTVTSIANGGSSTNTELKKAVLGLTVTPNITPDGQIIMTVKINKDSPAQCASGNQTILCISTKNLNTQAMVENGGTLIVGGIYEEDNGNTLTKVPLLGDIPVIGNLFKTRGKKTDRRELLIFITPRIMGTAGNSLRY	failed
MATRFDVKTIVKDKRFWIASFIIVWAAGLQGHMMWLQKQESFKQKFGTIDEDDHK	failed
MTCEGRRTMTQPISLGHRMSLIDLYDLRMPQRTGTYVLHEENLAIIETGPSPSVPHLLAGLKALHIDPADIRYIIVTHIHLDHAGGVGVLLEHCPNATVIVHPKGKRHLADPSRLIAGAKAVYGEQFDALFDPIVPVPEERLLVKEDGETLVLSAERTLTFYDTPGHANHHFSIYDSYSGGVFTGDTIGVFYPQLQEAGLAFCLPSTSPNQFNPEAMKQSAERLEKLNPTRIYFGHFGALDQPEEAFRQLRFWLPKFVAAGKEVIARHPEAPAAEQAKAVTKLLHNDITAFLNECSIPASSPVYKVIELDLQVCAMGIIDYWRKQRLEHHHHHH	not failed
MGHAALDAVLPDGGWPRRALTELLLPAHGIGEIALLLPTLARMTGAGSRVVLVAPPYVPYAPAWQAGGVALQQLEIVQAEPRDALWAFEQCLRSGACAAVLGWPQTGDARALRRLQVAADSGNCCAFALRDRRHAVNASPLEHHHHHH	failed
MDNRKRLAYAIIQFLHGQLRHGGLSCDAQESLEVAIQCLETAFGVTLEDSDLALPQTLPEIFEAATSSKQEMPQDPRAPDRTPPSEEDSAEAERLKTEGNEQMKLENFEAAVHLYGKAIELNPANAVYFCNRAAAYSKLGNYVGAVQDCERAIGIDPGYSKAYGRMGLALSSLNKHAEAVAYYKKALELDPDNDTYKSNLKIAELKLREAPSPTGGVGSLDIAGLLNNPHFITMASSLMNSPQLQQLMSGMISGGHNPLGTPGSSPQQSDLASLIQAGQQFAQQMQQQNPEFVEQIRSQVVRSRTPSASHEEQQE	failed
MEKSSFAAANMTIMSEPTTPTSQAHDSGASANVIATVETEIRQTARFPTRWTAISSALVVLLCVLALILVPIPFVARSPGQTVNLLSTNERGKPMIQVDGLTTRHGEGEMRMTTVSITRADSRLSMAEALVAHLRADHDVLQREAIYPPGRSPQQVDADESYMMDTSERDAAVAALRAAGQPVTEMPMVSAVSAAGPAHGKLAPGDLIEKVDGKPMASVLDVGKAVRKHTVGDTVVFVVLRNSSVKTIAVTTVSSVSDRRAPAVGVTIDTGYRYTPTITYNIPGDIVGPSAGLAMALSIYQMVAPNDLIGSLRIAGTGGISPDGNVVAIGGIQEKIAGAERDGAKIFLVPAGNCRDISGVETSMRLVKVSSLKDAIAAIQKIRAGGTGIPHC	failed
MMKNKVNIDTIIYLVLIITSLIFIYAGSFLFEEGSFIGNRGNNRTVDADTATDRNKPFPVVHKAVSTEINGIKQKINILEIDLSSGGVKIKPALAFDTIYGFQSLKDIAINNNAYAAVNAGFFYSYGEPSGMVVIDGKVYTKSTGKYPVFVVQGKNAFLSEIKSNIWILHGNRRIAADDINREGKPGETVVYTPVFGPTNRADKLHTSYIVENNRVARKFRGDTECKIPSDGMVITFYEPISSEEKFEVGDWIGIDIDPDFGPGFQAYECGSWLVRDGQVVAVDRDDWVGLLTNRDPRTAIGVKHDGKVVLVTVDGRQPGYSVGLSSRELAGYLLTLGIKDAAMLDGGASTQMIVQNKTVNRLPARERMLGGGIVVVVDEDL	failed
MSRFLTFFLIVFSYALQAQVASLTNAILYRNDGNLIKAKEEIDKAVVNEKTIGMPKTWFYTGLIYKDLYQATPTDLAALTTSTAAFKKVFELEKPAGEFSKKSQEALEQIWAISINNGVNLYQLENYRQAITDFERAQGIKPGDTTAYVYAFYAANELKDQALLEKYSSALVRLNYASEAVYYIDIESLMDKNLLDSAYTVSKKALTNYPSDIALKTQQTELMVKMNKTQEAIENLKVLSTKNPKDVQLLINIGSQYTNLNDEPHAAEYYQKALAIDSVNFNANYNMAVFSLRKANEISKQIVVSDNNLKKSFKAIPTVATDPLRQNLQKELAVSTKYYNRAVLGAKDEEAKKNVKTLQDNITSFEDQFLK	failed
MDFFHHQDTARQRTGLLVMLFTLAVLAITGLVSVISIGIYFYFTGEPFTTQSIISYCLLSFVGVLLVVSISSFIRLSELNANGGRGVAESIGGKLISTDTSNAKHRQLLNVVEEMSIASGIPVPPVYVMAEEHGINAFAAGMSIDDAVIGVTQGALDAFSRDELQGVIAHEFSHILNGDMRLNTRLIGALFGITCIAHFGHLILDNSNSTRHVSRSSSDSNKGFAVIILIAIVCLVLGWLGTLFGNMIKAAISRQREFLADASAVQFTRNDQGIAGALKKIGSNVQGSTLNTKASDEMSHMMFGQSKLSGFSGLFATHPPLDERIRRIEPNWDGSYAQHSHAQNTAFDNEQVSGFAVGGGSPASQSASPSEQLSETGQQLISQLPPELVDIAREPYSARFIAFALIFDGSDIQREMIKSYVPLASQSTLLPWLDYDLPLHLRFPLLELALPALKSLSEAQKISLCKVLRELSETDNQYSLAEWCVINLLEKQLLASFGFIKQHKSLKQLEESVFWLLRELAWVSHSQADKAQRAYHCALAHLGFPEVKLEPANSNWHLSRAALELLLQLKPNDRRMFVKACRLAIESDGEITVAEGEIYRVIACFLEVPEPPLTISG	failed
